Results taken from patent US20160009806A1 (Seagen, published 2016).
Numbering of substitutions follows the chain as printed. One block for each binder: values may come before it.

Columns and labels:
[1] = target: T1, human integrin αvβ6 on cells (human, UniProt P06756 31-1048; P18564 22-788); test: cell-based or functional assay
[2] = target: T2, cynomolgus integrin αvβ6 on 293F:cynoβ6 cells (human; cynomolgus, UniProt P06756 31-1048; A0A2K5TZ36 22-787); test: saturation binding of biotinylated antibody, flow cytometry on 293F:cynoβ6 cells (apparent Kd)
T2 construct: whole, on cells; also called HEK293F:cynoβ6
Experimental: (§1) 0.25-0.5×10⁶ antigen expressing cells were aliquoted per well into a 96-well v-bottom plate. m15H3, h15H3 (HBLC) and h15H3 (HTLC) were directly labeled with equivalent levels of biotin and added to cells at concentrations ranging from 0.1 pM-150 nM. Cells were incubated on ice for 30 minutes, washed three times in FACS buffer (PBS, 2% fetal bovine serum, 1 mM MgCl₂, 1 mM CaCl₂, 0.02% NaN₃), incubated on ice for 45 minutes with PE conjugated streptavidin (0.5 ug/ml) in FACS buffer, washed three times and resuspended in FACS buffer. Binding was detected using a Becton Dickinson Biosciences FACSCalibur (San Jose, Calif.). The apparent Kd was calculated using GraphPad Software (LaJolla, Calif.).

[3] = target: T3, rat integrin αvβ6 on NBT-II bladder carcinoma cells (rat, UniProt F1LZX9 31-1043; Q6AYF4 22-787); test: saturation binding of biotinylated antibody, flow cytometry on rat NBT-II cells (apparent Kd)
T3 construct: whole, on cells; Endogenous αvβ6 of rat NBT-II cells; also called rat αvβ6; rat NBT-II
Experimental: as §1
The KD for the murine αvβ6 monoclonal antibody 15H3 antibody and select humanized version thereof was determined for human, cyno, rat, and mouse. […] The genetically engineered cell lines express endogenous αv which pairs with the recombinant β6 chain to produce a heterodimeric receptor composed of endogenous αv and recombinant β6. The affinity for rat αvβ6 was determined using rat NBT-II bladder carcinoma cells, which expression endogenous αvβ6.

[4] = target: T1, human integrin αvβ6 on cells; test: saturation binding of biotinylated antibody, flow cytometry on 293F:huβ6 cells (apparent Kd)
Experimental: as §1

[5] = target: T4, integrin αvβ5 on the parental line 293F:vector (human, UniProt P06756 31-1048; P18084 24-799); test: FMAT and FACS binding on cells
T4 construct: whole, on cells; Negative control cells; also called HEK293F:vector
T4 sequence (P06756 31-1048, chain 1 of 2): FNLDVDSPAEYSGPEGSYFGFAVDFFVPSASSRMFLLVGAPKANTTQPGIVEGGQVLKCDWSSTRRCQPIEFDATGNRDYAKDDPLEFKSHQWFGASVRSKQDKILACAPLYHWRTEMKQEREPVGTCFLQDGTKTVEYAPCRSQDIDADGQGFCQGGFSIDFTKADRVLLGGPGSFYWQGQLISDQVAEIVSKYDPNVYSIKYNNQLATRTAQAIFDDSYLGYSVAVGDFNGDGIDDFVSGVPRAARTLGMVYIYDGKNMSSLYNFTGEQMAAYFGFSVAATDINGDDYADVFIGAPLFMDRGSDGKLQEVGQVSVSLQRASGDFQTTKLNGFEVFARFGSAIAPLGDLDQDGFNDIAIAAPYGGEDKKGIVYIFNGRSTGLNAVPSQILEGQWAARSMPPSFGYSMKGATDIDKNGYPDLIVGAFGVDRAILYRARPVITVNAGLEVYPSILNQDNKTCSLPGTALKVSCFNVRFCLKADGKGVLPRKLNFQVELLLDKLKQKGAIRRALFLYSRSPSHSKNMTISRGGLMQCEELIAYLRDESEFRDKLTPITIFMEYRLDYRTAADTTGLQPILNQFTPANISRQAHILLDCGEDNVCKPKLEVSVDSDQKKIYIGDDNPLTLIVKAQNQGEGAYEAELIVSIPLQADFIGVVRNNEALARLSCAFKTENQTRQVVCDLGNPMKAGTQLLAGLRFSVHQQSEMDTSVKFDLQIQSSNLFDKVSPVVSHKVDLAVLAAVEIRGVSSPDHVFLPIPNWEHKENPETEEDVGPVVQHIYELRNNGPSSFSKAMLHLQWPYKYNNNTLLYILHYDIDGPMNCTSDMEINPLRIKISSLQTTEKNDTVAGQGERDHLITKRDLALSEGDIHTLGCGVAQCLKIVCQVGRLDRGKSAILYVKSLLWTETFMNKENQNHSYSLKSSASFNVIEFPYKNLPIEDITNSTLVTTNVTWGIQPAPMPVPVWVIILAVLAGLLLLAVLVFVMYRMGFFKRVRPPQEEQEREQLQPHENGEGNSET
T4 sequence (P18084 24-799, chain 2 of 2): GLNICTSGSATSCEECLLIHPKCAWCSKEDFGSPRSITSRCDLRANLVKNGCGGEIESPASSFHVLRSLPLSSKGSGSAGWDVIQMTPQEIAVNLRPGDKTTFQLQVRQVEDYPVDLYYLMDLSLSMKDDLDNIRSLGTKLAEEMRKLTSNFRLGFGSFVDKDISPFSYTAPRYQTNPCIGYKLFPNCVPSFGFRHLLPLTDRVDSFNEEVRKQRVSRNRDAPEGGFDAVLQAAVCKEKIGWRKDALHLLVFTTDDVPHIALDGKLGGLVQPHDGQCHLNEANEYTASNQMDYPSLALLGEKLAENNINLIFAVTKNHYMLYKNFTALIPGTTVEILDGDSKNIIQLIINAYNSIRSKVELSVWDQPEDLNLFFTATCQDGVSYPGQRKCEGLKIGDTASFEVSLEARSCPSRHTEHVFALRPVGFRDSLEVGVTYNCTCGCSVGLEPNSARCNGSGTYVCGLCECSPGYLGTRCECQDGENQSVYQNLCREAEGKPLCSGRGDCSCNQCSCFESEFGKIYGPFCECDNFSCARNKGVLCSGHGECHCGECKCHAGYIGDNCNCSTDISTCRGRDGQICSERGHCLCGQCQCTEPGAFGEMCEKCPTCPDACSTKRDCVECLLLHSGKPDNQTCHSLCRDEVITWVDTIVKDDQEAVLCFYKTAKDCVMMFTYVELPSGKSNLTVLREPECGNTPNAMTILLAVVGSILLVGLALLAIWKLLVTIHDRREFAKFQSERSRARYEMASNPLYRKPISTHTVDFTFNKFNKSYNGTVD

[6] = target: T5, recombinant αvβ3 (human, UniProt P06756 31-992; P05106 27-718); test: ELISA, integrin coated at 1 ug/ml, biotinylated antibody
T5 construct: Bought from R&D Systems; species read from 'recombinant human αvβ6, αvβ3 and αvβ8'
Experimental: (§2) 96-well Maxisorb plates (Nunc) were coated overnight at 4° C. with 1 ug/ml of recombinant human αvβ6, αvβ3 and αvβ8 diluted in PBS. Plates were washed in PBS with 0.05% Tween 20 (PBS-T). Wash buffer was removed and plates were blocked for 30 minutes at room temperature in TBS blocking buffer (TBS plus 1 mM MnCl₂, 0.05% Tween 20, 1% BSA). Plates were washed and then incubated for 1 hour with biotinylated antibody (m15H3 or h15H3) diluted in TBS blocking buffer at concentrations that ranged from 4.6 ng/m1-10 ug/ml. Plates were washed, incubated for 1 hour with 1 ug/ml of HRP-streptavidin, washed, and then incubated with TMB substrate for 10 minutes. The reaction was stopped with 1 M H₂SO₄. Absorbance at 450 nm was read using a Fusion HT plate reader (Perkin Elmer, Waltham, Mass.).
(§3) BALB/c mice were immunized three times with intraperitoneal injections of ˜5×10⁶ 3 T3:huβ6 transfectants. Three days prior to fusion, mice received a final injection of purified recombinant human αvβ6 that was given intravenously (6 ug) and intraperitoneally (30 ug). Lymphocytes harvested from spleen and lymph nodes were fused to P3X63Ag8.653 myeloma cells using polyethylene glycol. Fused cells were recovered overnight in hybridoma growth media (IMDM containing 4 mM glutamine, 10% Fetal Clone I, 10% Cloning Factor and Penicillin/Streptomycin). […] The plates were read in an FMAT 8200 (Applied Biosystems).

[7] = target: T6, recombinant αvβ8 (human, UniProt P06756 31-992; P26012 43-684); test: as above
T6 construct: Bought from R&D Systems; species read from 'recombinant human αvβ6, αvβ3 and αvβ8'
Experimental: as §2, §3

[8] = target: T7, mouse integrin αvβ6 on FDC-P1:muβ6 cells (mouse, UniProt P43406 31-1044; Q9Z0T9 22-787); test: saturation binding of biotinylated antibody, flow cytometry on FDC-P1:muβ6 cells (apparent Kd)
T7 construct: whole, on cells; Heterodimer of endogenous mouse αv and recombinant mouse β6
T7 sequence (P43406 31-1044, chain 1 of 2): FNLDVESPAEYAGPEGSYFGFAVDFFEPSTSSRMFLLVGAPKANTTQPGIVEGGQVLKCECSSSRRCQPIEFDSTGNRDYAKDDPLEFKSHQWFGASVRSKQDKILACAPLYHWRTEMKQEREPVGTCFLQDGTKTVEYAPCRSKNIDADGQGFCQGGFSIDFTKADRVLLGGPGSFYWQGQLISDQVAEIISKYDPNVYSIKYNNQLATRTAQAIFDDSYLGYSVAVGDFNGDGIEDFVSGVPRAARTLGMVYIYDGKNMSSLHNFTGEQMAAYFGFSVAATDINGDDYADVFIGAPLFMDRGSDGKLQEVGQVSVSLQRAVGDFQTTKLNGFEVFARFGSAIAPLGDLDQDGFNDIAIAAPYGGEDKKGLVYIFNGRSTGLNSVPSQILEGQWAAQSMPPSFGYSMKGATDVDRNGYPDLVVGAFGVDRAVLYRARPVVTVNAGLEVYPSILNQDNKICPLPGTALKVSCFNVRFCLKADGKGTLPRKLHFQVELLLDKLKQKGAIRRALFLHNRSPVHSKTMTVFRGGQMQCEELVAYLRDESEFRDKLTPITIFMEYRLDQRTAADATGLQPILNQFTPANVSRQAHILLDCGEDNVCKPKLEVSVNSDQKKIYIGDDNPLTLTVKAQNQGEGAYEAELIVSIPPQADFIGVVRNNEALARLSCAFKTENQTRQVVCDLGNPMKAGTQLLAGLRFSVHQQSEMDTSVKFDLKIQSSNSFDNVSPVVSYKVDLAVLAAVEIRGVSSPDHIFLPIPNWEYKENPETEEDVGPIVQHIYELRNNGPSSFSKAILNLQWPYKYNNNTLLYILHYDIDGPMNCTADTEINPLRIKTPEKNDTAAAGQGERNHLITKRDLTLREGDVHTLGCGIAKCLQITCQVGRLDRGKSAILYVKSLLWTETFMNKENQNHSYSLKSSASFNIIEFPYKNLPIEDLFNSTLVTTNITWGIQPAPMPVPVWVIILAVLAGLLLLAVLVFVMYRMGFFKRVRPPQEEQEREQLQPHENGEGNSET
T7 sequence (Q9Z0T9 22-787, chain 2 of 2): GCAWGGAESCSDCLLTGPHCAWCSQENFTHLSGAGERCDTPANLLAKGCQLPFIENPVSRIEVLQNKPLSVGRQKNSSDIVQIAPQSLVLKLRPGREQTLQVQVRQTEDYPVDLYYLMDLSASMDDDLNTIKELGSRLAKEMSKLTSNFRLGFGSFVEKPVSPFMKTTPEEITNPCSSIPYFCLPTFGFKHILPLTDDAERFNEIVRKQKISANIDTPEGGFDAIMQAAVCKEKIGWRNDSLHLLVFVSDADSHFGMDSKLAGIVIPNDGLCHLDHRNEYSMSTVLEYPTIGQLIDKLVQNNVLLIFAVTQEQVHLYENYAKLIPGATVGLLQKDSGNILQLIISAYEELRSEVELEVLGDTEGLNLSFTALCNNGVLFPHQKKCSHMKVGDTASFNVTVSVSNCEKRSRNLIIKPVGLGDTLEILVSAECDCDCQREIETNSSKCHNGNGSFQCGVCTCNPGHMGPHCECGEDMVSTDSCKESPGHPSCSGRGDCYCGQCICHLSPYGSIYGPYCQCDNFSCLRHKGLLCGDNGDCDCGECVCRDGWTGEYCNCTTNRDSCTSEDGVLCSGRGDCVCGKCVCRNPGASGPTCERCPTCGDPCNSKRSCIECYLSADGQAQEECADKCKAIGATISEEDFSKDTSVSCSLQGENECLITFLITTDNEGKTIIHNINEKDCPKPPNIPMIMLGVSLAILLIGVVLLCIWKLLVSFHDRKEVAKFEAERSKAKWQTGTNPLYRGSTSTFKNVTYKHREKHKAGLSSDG
Experimental: as §1

[9] = target: T1, human integrin αvβ6 on cells; test: competition binding, flow cytometry on 293F cells expressing αvβ6; competitor 2 nM AlexaFluor-647 m15H3
Experimental: (§4) 1×10⁵ antigen expressing cells were aliquoted in each well of a 96-well v-bottom plate on ice. […] Cells were pelleted and washed 3 times with PBS. The cells were pelleted and resuspended in 125 uL of PBS/BSA. Fluorescence was analyzed by flow cytometery, using percent of saturated fluorescent signal to determine percent labeled murine 15H3 bound and to subsequently extrapolate the EC50 by fitting the data to a sigmoidal dose-response curve with variable slope.

[10] = target: T1, human integrin αvβ6 on cells; test: competition binding on 293F cells expressing human αvβ6 (FIG. 2)
Experimental: as §4

T1 sequence (P06756 31-1048, chain 1 of 2): as the sequence (P06756 31-1048, chain 1 of 2) above
T1 sequence (P18564 22-788, chain 2 of 2): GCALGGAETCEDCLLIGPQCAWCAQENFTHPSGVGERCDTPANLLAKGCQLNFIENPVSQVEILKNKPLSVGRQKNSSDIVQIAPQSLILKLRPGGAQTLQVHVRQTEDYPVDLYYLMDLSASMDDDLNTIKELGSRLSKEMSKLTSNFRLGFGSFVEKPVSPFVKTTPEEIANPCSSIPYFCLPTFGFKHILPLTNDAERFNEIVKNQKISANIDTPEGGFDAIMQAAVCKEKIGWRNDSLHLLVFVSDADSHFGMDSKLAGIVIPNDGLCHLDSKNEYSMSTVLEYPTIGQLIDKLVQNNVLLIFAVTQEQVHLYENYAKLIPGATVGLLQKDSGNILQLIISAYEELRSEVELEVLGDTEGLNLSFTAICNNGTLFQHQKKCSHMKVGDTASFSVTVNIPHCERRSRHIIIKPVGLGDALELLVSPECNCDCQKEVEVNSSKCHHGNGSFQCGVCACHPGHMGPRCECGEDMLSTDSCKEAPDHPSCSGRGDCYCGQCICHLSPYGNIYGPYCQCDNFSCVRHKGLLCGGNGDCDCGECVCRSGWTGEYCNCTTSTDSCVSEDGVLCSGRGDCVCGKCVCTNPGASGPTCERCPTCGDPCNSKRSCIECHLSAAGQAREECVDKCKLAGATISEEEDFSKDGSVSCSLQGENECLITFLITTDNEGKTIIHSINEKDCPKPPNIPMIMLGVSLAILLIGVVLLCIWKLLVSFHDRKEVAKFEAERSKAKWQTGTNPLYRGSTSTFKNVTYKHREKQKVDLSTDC

B1: murine 15H3 antibody conjugated with vcMMAE (antibody, V domains shown)
VH: EVQLQQSGPELVKPGASVKISCKASGYSFSGYFMNWVKQSHGQSLEWIGLINPYNGDSFYNQKFKGKATLTVQKSSSTAHMELQSLTSEDSAVFYCVRGLRRDFDYWGQGTPLTVSS
VL: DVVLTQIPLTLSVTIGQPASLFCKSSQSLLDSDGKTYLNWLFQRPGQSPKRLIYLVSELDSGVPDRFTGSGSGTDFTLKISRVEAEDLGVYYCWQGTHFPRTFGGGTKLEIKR
modifications: vcMMAE drug-linker conjugated to the antibody (site and loading not stated for the murine ADC)
- IC50 (ng/ml), cytotoxicity assay on 5637 cells (36 x10^3 αvβ6 copies/cell) [1]: > 1000 ng/mL
- IC50 (ng/ml), cytotoxicity assay on BxPC3 cells (37 x10^3 αvβ6 copies/cell) [1]: 34 ng/mL
- IC50 (ng/ml), cytotoxicity assay on Capan-1 cells (19 x10^3 αvβ6 copies/cell) [1]: 365 ng/mL
- IC50 (ng/ml), cytotoxicity assay on HPAFII cells (22 x10^3 αvβ6 copies/cell) [1]: 76 ng/mL
- IC50 (ng/ml), cytotoxicity assay on HupT4 cells (184 x10^3 αvβ6 copies/cell) [1]: 35 ng/mL
- IC50 (ng/ml), cytotoxicity assay on Panc08.13 cells (137 x10^3 αvβ6 copies/cell) [1]: 93 ng/mL
- IC50 (ng/ml), cytotoxicity assay on RT4 cells (42 x10^3 αvβ6 copies/cell) [1]: > 1000 ng/mL
- IC50 (ng/ml), cytotoxicity assay on SW780 cells (80 x10^3 αvβ6 copies/cell) [1]: 614 ng/mL

B3: murine 15H3 antibody conjugated with mcMMAF (antibody, V domains shown)
VH: B1 VH
VL: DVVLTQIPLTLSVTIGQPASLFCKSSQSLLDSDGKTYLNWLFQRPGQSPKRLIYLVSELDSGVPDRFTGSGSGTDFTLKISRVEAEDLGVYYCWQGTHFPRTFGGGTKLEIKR
modifications: mcMMAF drug-linker conjugated to the antibody (site and loading not stated for the murine ADC)
- IC50 (ng/ml), cytotoxicity assay on 5637 cells (36 x10^3 αvβ6 copies/cell) [1]: > 1000 ng/mL
- IC50 (ng/ml), cytotoxicity assay on BxPC3 cells (37 x10^3 αvβ6 copies/cell) [1]: 7 ng/mL
- IC50 (ng/ml), cytotoxicity assay on Capan-1 cells (19 x10^3 αvβ6 copies/cell) [1]: 1510 ng/mL
- IC50 (ng/ml), cytotoxicity assay on HPAFII cells (22 x10^3 αvβ6 copies/cell) [1]: > 2000 ng/mL
- IC50 (ng/ml), cytotoxicity assay on HupT4 cells (184 x10^3 αvβ6 copies/cell) [1]: 16 ng/mL
- IC50 (ng/ml), cytotoxicity assay on Panc08.13 cells (137 x10^3 αvβ6 copies/cell) [1]: 1400 ng/mL
- IC50 (ng/ml), cytotoxicity assay on RT4 cells (42 x10^3 αvβ6 copies/cell) [1]: > 1000 ng/mL
- IC50 (ng/ml), cytotoxicity assay on SW780 cells (80 x10^3 αvβ6 copies/cell) [1]: 86 ng/mL

B4: humanized 15H3 antibody HBLC (antibody, V domains shown)
VH: QVQLVQSGAEVKKPGASVKVSCKASGYSFSGYFMNWVRQAPGQGLEWMGLINPYNGDSFYNQKFKGRVTMTRDTSTSTVYMELSSLRSEDTAVYYCARGLRRDFDYWGQGTLVTVSS
VL: DVVMTQSPLSLPVTLGQPASISCKSSQSLLDSDGKTYLNWLFQRPGQSPRRLIYLVSELDSGVPDRFSGSGSGTDFTLKISRVEAEDVGVYYCWQGTHFPRTFGGGTKLEIKR
notes: Only variable regions are tied to the construct; also called h15H3 (HBLC); h15H3-1
- Kd [2]: 1.6 nM
- Kd [4]: 1.4 nM
- EC50 [9]: 8.14 nM
- Kd [8]: 0.6 nM

B5: humanized 15H3 antibody HBLF (antibody, V domains shown)
VH: B4 VH
VL: B4 VL with I21L, S22F, R50K, S68T
notes: HB heavy chain with LF light chain of the first humanization round
- binding result [10]: binds

B6: humanized 15H3 antibody HMLG (antibody, V domains shown)
VH: B4 VH with D73Q, T74K, T76S, V79A
VL: B4 VL with M4L
- EC50 [9]: 1.07 nM

B10: humanized 15H3 antibody HBLD (antibody, V domains shown)
VH: B4 VH
VL: B4 VL with L41F, F42Q, R50K
notes: HB heavy chain with LD light chain of the first humanization round
- binding result [10]: binds

B14: humanized 15H3 antibody HMLC (antibody, V domains shown)
VH: B4 VH with D73Q, T74K, T76S, V79A
VL: B4 VL
- EC50 [9]: 0.49 nM

B18: humanized 15H3 antibody HNLC (antibody, V domains shown)
VH: B4 VH with D73Q
VL: B4 VL
- EC50 [9]: 11.1 nM

B19: humanized 15H3 antibody HNLG (antibody, V domains shown)
VH: B4 VH with D73Q
VL: B4 VL with M4L
- EC50 [9]: 3.16 nM

Continued, values first:

- Kd [2]: 1 nM
- Kd [3]: 0.2 nM
- Kd [4]: 0.8 nM
- binding result [5]: no binding
- binding result [6]: no binding (tested: 4.6 ng/ml-10 ug/ml)
- binding result [7]: no binding (tested: 4.6 ng/ml-10 ug/ml)
- Kd [8]: 0.2 nM
B2: murine 15H3 monoclonal antibody (antibody, V domains shown)
VH: B1 VH
VL: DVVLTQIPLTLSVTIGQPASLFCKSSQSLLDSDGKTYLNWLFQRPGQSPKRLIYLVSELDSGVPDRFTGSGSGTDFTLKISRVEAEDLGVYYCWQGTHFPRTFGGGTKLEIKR
notes: Murine hybridoma antibody; also called m15H3; mouse 15H3

- EC50 [9]: 23.9 nM
B7: humanized 15H3 antibody HRLG (antibody, V domains shown)
VH: B4 VH with T76S, V79A
VL: B4 VL with M4L

- binding result [10]: binds
B8: humanized 15H3 antibody HBLB (antibody, V domains shown)
VH: B4 VH
VL: B4 VL with I21L, S22F, L41F, F42Q
notes: HB heavy chain with LB light chain of the first humanization round

- EC50 [9]: 32.5 nM
B9: humanized 15H3 antibody HSLC (antibody, V domains shown)
VH: B4 VH with D73Q, T76S, V79A
VL: B4 VL

- binding result [10]: binds
B11: humanized 15H3 antibody HBLA (antibody, V domains shown)
VH: B4 VH
VL: B4 VL with L41F, F42Q
notes: HB heavy chain with LA light chain of the first humanization round

- EC50 [9]: 0.93 nM
B12: humanized 15H3 antibody HULC (antibody, V domains shown)
VH: B4 VH with D73Q, T74K, T76S, V79A, A97V
VL: B4 VL

- EC50 [9]: 26.7 nM
B13: humanized 15H3 antibody HRLC (antibody, V domains shown)
VH: B4 VH with T76S, V79A
VL: B4 VL

- EC50 [9]: 0.74 nM
B15: humanized 15H3 antibody HLLC (antibody, V domains shown)
VH: B4 VH with T74K, T76S, V79A
VL: B4 VL
notes: also called h15H3-2

- binding result [10]: binds
B16: humanized 15H3 antibody HBLE (antibody, V domains shown)
VH: B4 VH
VL: B4 VL with L41F, F42Q, S68T
notes: HB heavy chain with LE light chain of the first humanization round

- EC50 [9]: 0.97 nM
B17: humanized 15H3 antibody HLLG (antibody, V domains shown)
VH: B4 VH with T74K, T76S, V79A
VL: B4 VL with M4L

- Kd [2]: 1.5 nM
- Kd [3]: 0.4 nM
- Kd [4]: 1.2 nM
- EC50 [9]: 3.7 nM
- Kd [8]: 0.3 nM
B20: humanized 15H3 antibody HTLC (antibody, V domains shown)
VH: B4 VH with D73Q, A97V
VL: B4 VL
notes: Only variable regions are tied to the construct; also called h15H3 (HTLC); h15H3-3
